Consider two substances from paper PMC8063088.

For test [1], the target named is 1D4-tagged NET1_(ΔNTR) (UniProt O95631). The test can be described thus: proximity ligation assay (PLA). As to conditions: COS-7 cells co-transfected with NEO1-mVenus and full-length RGMB, incubated with NET1ΔNTR; p = 0.0107; parent: est. 59; read off a plot.
Test [2] addresses NET1_(ΔNTR)^F55R with C-terminal biotinylated Avi-tag (SPR ligand) (human) (UniProt O95631). The test can be described thus: SPR; NEO1/DCC:NET1 binding site analysis; biotinylated NET1_(ΔNTR) wild type, Interface-1 and Interface-2 mutants captured at 1007, 1027 and 937 RU; analytes NEO1 and DCC FN456 and FN56, two-fold series from 50 μM; equilibrium, one-site model; 25 °C, 10 mM HEPES pH 7.5, 150 mM NaCl, 0.05% polysorbate-20, 1 mg/ml BSA. For orientation: Surface plasmon resonance follows binding to a sensor surface in real time, without labels.

Test [3] deals with NET1_(ΔNTR)^Q443N/R445T with C-terminal biotinylated Avi-tag (SPR ligand) (human) (UniProt O95631). The test is described as above.
For test [4], the target named is NET1_(ΔNTR) 'Interface-1' mutant (F55R), made with an N-terminal His6-SUMO tag (human) (UniProt O95631). The test can be described thus: AUC; sedimentation velocity, 20 °C; binary NEO1_(FN456)-NET1_(ΔNTR) complexes (NET1 wild type at different concentrations, or Interface-1/-2 mutants) mixed equimolar, 10 mM HEPES pH 7.5, 150 mM NaCl, 2 mM CaCl2.
Test [5] deals with NET1_(ΔNTR) 'Interface-2' mutant (Q443N/R445T), made with an N-terminal His6-SUMO tag (human) (UniProt O95631). The test is described as above.

For the substance “full-length GPI-anchored RGMB (RGMBFL), N-terminal FLAG (from UniProt Q6NW40) A186R”, the response (No. of PLA foci) in test [1] was 22.

As to “NEO1 FN type III domains 4 to 6 (NEO1_(FN456)) (domain or fragment)”, the fold lower affinity than wild-type NET1 (ΔNTR) in test [2] turned out to be 10 fold. The fold reduction of binding against wild-type NET1 (ΔNTR) in test [3] was found to be 2 fold. For the same substance, the stoichiometry N in test [4] and in test [5] was 1 NET1:NEO1 throughout.

What is called stoichiometry N is the number of molecules, sites or subunits per partner or assembly.
